This is an account of results in a protein production outcome set (Wang et al. 2014).

A short description of the series: label from the status in PepcDB records.
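Note: failed if final PepcDB status was selected cloned or expressed and not failed if soluble or beyond.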

For “ASVVLDFLTSDDFPAVAELGAAIWHKHFIGMISREQIDYMVSSRYTPQRLGRYLDAPDRWFRLLRVDGRPVGYCSYALTGQPGEMKLEQLYLLEEMRGWGLGGRMMDEAEAAARALGCATLMLTVNRHNAGAIAVYQKRGFAVREEVVADIGNGFVMDDYMMEKLLSR”, the protein production result is given as “failed”. “ATEEFIIRIPPYHYIHVLDQNSNVSRVEVGPKTYIRQDNERVLFAPMRMVTVPPRHYCTVANPVSRDAQGLVLFDVTGQVRLRHADLEIRLAQDPFPLYPGEVLEKDITP”: the protein production entry is “failed”. The value for “ATHTLQLAIGDEPTEGFDPMLGWSHGSYLLLHSPLLKQNEDFSWDSLLLSQYQPSDDGKTWLLTLKPDLKFSDGSPLTAKDVAFTYNNAAASGGKVDMGNFLSAEVIDPLNVRIHLKAPQSTFVNVLGSLGIVSADKYNAKTYAQKPIGAGPYRLVSFQPGQQMIVEANPYYAGNKNDFDKLIFVFLDEDSAFAAAQSGQLGVVRIPPSMAVGSVNNMKLWVRPSVENRGIVFPTTPAGKKDAHGYPIGNDVTADVAIRRAINYAINRQLLADQIMEGHAIPAYTGVQGLPWNNPDSAIKDGDIDKAKQILEQAGWQLNSQGTREKNGLPAKITLWYTSGDTTRRDLAQALRSMLKPIGIDVDLKSGSWETVERNMHANPTLFGWGSLDPMELYHHYSSNAAGVEYYNPGYYKNPMVDKHLQQALDAPTWQQAVPFWQQVDWDGTTGAGIRGDAAWAWLLNIQHTYLANNCVDLGKGTPEIHGSWSLLNSIDSWK” was “not failed”; that for “AVSGLYSSSDDVIELTPSNFNREVIQSDGLWLVEFYAPWCGHCQRLTPEWKKAATALKDVVKVGAVNADKHQSLGGQYGVQGFPTIKIFGANKNKPEDYQGGRTGEAIVDAALSALR” was “not failed”; that for “AYQPIRYRETGKVGELTFEFYNGAMSTEQCQRLVSALRWAKARDTQVLLVRGGRGAFSNGVHLNVIQAAEVPGLEAWANIQAIDDVCLELLTARQLVVSGLTGNAGAGGLMLALAADVVLARADTVYNPHYKSMGLYGSEYWTYSLPRAVGQAMAKQLTEACLPISALQALQMGMVQEIGPRC” was “failed”.

As to “CSGKEALDYFKEDPQMFDMYHTGYQQQMSNWPELPVNSIINWLLSNSSSLVVADFGCGDARIAKSVKNKVFSFDLVSKNPSVIACDMSNTSLESSSVDVAVFCLSLMGTNYSSYIKEAHRVLRPSGMLLIAEVKSRFDPNNGGADPKDFVKAVCDLGFTSVLKDFSNKMFILFHFKKK”, the protein production entry was “failed”. The same measure for “DDDIEQLLEFMHQLPAFANMTMSVRRELCSVMIFEVVEQAGAIILEDGQELDSWYVILNGTVEISHPDGKVENLFMGNSFGITPTLDKQYMHGIVRTKVDDCQFVCIAQQDYWRILNHVEK”: “not failed”; for “DDFETSLTELEPLEKDAYIVRLVFAGSTTTEPIVSSLSTAYDIKINILEANIKNTKNGTVGFLVLHIPYISSVDFGKFEKELIERQVKMEVLRHG”: “not failed”; for “DDSLGEAVTTRAEALTIPAVLRARNLLSTTVARTPLVCDGTLPPFVPVAAPPGAATMQTPFHRMLATADDLLFNGVACWALDRDESGTCIGAIHIPLDTWQIEENTVRVNGKAVDPMEVCIFVGIHGGLLTHASETFTDARNLVRAAARVAQNPAALIELRQTNNAQLSPDDVDRIINGYVAARRGRNSGVGFSSSGLEVHEHEMAKENLLIEGRNAAAVDVARAMNVPAAFIDATVGGTSLSYQNAASRMIELVTFGVEPLMSAIEARLNQPDMHADHLANPLKFDPAALLDAIPTTPTIG”: “not failed”.

Turning to “DDSSDPKTSKSATSSEASSAAEAAPAELPTAEELNAILAVATDPAAPVEQKVATVQGGETAPELFETMTASKQESGANFQ”, the protein production entry is on record as “failed”. The value for “DDVTLLTVPGWGNSGDTHWHGYWEKTYPLARRAEQRDWLYPTRDEWVAGLAAAVAEIPGKLVIAAHSLGCHTTVAWLLQATLLEQRKVKGALLVAPPAIPLTDERARASGELPEGAPLPTFAGFETLPERKLPVPALLVASRDDPFCEFEEARRMAELWGAEFVDGGMAGHMGSHAGLGSWPAGQRLLQRLI” was “failed”; that for “DEKGNIVDGDQIMYICSKHLKSEGRLKDDTVVSTVMSNLGFYKALEKEGIKSVQTAVGDRYVVEAMKKDGYNVGGEQSGHLIFLDYNTTGDGLLSAIMLMNTLKATGKPLSELAAEMQKF” was “failed”.

In the case of “DEVENLYTQVADNEYLVQGRMLIDEFNEVFETDLHMSDVDTMAGYLITALGTIPDEGEKPSFEVGNIKLTAEEMEGTRLLVLRVHFYDEE”, the protein production entry was “not failed”.

As to “DGENYFIVDAHVALWDARRENQRNIHGKQFIDCFYDYHRNLSPASELWPYEDFLYQGGERLMKDLFTDGYVDHAIFQPAHLGAFYNTGFGQTEEAFALTRKHPGMLTYNHCFDPRFEEAGLKQLREDAARFGLKGVKLYTAEWKGDSRGYKLSDPWTYRYLDACRELGIKNIHVHKGPTIRPLDRDAFDVADVDAAASDFTDLNFVVEHCGLPRLEDFCWIATQEPNVHAGLAVAIPFMHTRPRYFAQIIGELLYWLDEDRIQFSSDYALWTPRWIVEQFVDFRIPDDMTGEYPQLTVAQKKKILGLNAAAMYDI”, the protein production result is on record as “failed”.

Consider “DIAARRHTGVIPTHHQFITNERFGDLLNIDDTAKRKSGSEMRPARAKFDFKAQTLKELPLQKGDIVYIYKQIDQNWYEGEHHGRVGIFPRTYIELLPPAEKAQPKKLTPVQVLEYGEAIAKFNFNGDTQVEMSFRKGERITLLRQVDENWYEGRIPGTSRQGIFPITYVDVIKRPLVKNPVDYMDLPF”, for which the protein production entry is on record as “failed”. “DIMGFVFNTRRTLFKDKRVRQALSILFDFEWVNHHLFNNIYTRTEGYWDGSILSSIGKPASEEEKALLAPYPDAVLPEVMDGSWRISKTDGSGMDRLNAQKAWKLLQEAGFTKKNNRLIAPNGLPFQFEIMTQSLEEEKVALAFQSNLSRLGIHAEIRTVDDSQYQNRLGMFNYDMIIGKLKNSLSPGNEQINRWSSASRNLKGSFNFSGASDPAIDAMITAILDAHSQVDFIAAVRALDRILISGSYYIPLYHLS”: the protein production entry is given as “not failed”. “DITERKQAESALQESEARFQAFMNNSPSASWITDDHGRMLYLSQTYVRTFQLPFDKVEDVTGKTVFELYTPEVAQPFLDNIHRVAQTQQILETIEKAPRLDGTLGDFLVYKFPLPATT”: the protein production entry is recorded as “failed”. On to “DKITFKGDGDQSDPDGEPGDVVIVIQQKDHDIFKRDGDDLHMTKKLSLNEALCGYNFLIKHLDGHPLVLSSKQGDVIKPGVIRGVLGKGMPNKKYPELKGNLFVEFEVEFPKEHFLDDEKAYAVLK”, for which the protein production result is reported as “not failed”.

For the sequence “DLEPRERLHRILEQVLVFAGAMVAAAYTHSEDGDQLCLAESAGVPRSLYGLRDSYPLTGGTPAADVHRSGQPLWLTPEDLGRCADARRLPNGDFSLAVLPLGDGGCLAAVSERAGGFDADDRECLRLLAGSVA”, the protein production entry is listed as “failed”.

As to “DLSREADQALQEIVRQTQETAQMCLLNGRKYTVALMKEGERHFRISSNIGENAPIPWTASGRLLLGHLSDGQIVDLIDERDFVLPDGERLPLETFLKQIRQATEDGFFSFDSVADTFTHCFAAPVRDEHGVCICTLCIVAPRADAQRNYQQYRRVLIDSANRLARRIN”, the protein production entry is on record as “failed”. For the sequence “DNKELQKLTEDISETYFKKPFRHQALFNDRLKTTGGRYLLTSHNIELNRKYLIEHGREELIGIIKHELCHYHLHLEGKGYKHRDRDFRMLLQQVNAPRFCTPLKKKAENKKTYMYICTTCGQQYIKKRAMNPDRYRCGKCRGKIKRI”, the protein production result is “not failed”.

Consider “DPREVAGGYVEKLCARYGLADVRVVQSPAMGRGLTGELGNAGAALLEEVVKDGMTVGVSWGDTMLAVSEHLRTLPLVDVKVVQLKGGHSHTARNTNDMVTLTRFSRALNAEMMMLPLPVILDSKEAKELVVKDRHIASMLNLGAHCDVAVFTVGAVKSESLLLNLGYLSPSEQARLMEHAVGDVCSRFYDAQGEVADPDIDARTVGISLADLKKRPVRVLVAGGLEKAPAIEAALRTGVATHVVIDHATAQRVVEMA”, for which the protein production result was “failed”. In the case of “DQPLAVAGDELAIADQTIDALSAQVEKLRHQQDLSLKQAELLTELSRANLSDIDEIQGVIQKNLDQARALFGCERLVFYYHPRYQPEAMVVQALDLTTQGLIDSKDPHPWGQEDMPSQIVAINDTSGASISNPHRQWLEQHQVKASLTVPLHRDNYPLGLLMAHHCQRPHQWEMRERQFLQQLTEELQTTLDRANLIQERNESAQQAQILKELTLKISAAIN”, the protein production result was “failed”. The same measure for “DRTAILGGTFTPIHNGHRALLHKAFQTASHDGSGDGHVIVGLTSPELATETRSDPTHVKQLGAYDDRRSALASELDQLGEPYTATYEIVRLDDTQGPAATRADVDALVASPEAKAQRRAYELNQQRRESGLHPLEIHTPPFVVAEDGTRISSTRIRNGEIDVHGRLLD”: “failed”; for “DRVLVPVANPNTEDNLLQLAIILTKSASGTLLPLHILLEENNPISPDAKAKQSQLLSTAEMIAHAAVVNVTPIGRIDESIDKGIARVAEEKQASAIICGWKGYSTYEENLFGGVIDKIVQRSFIPVLVSR”: “failed”. On to “DRVTLEVGKVIQQGRQSKGLTQKDLATKINEKPQVIADYESGRAIPNNQVLGKIERAIGLKLRGKDIGKPIEKGPRAK”, for which the protein production result is given as “not failed”. Consider “DSIVEGRTLNVAVSPASPPMLFKSADGKLQGIDLELFSSYCQSRHCKLNITEYAWDGMLGAVASGQADVAFSGISITDKRKKVIDFSEPYYINSFYLVSMANHKITLNNLNELNKYSIGYPRGMAYSDLIKNDLEPKGYYSLSKVKLYPTYNETMADLKNGNLDLAFIEEPVYFTFKNKKKMPIESRYVFKNVDQLGIAFKKGSPVRDDFNLWLKEQGPQKISGIVDSWMK”, for which the protein production entry is listed as “not failed”. As for “DSRQRFKRQMVEQAAPWLLELSARTGLVTDLSSFDGESLEVLESAVPEVLRKRYPSNSRIVGQHASLFHSAMGKACLGALASAEVERLAEQEQVPAEARQQCLESQHLGFGQRTEGHWEYPVRLPFLIRAVALPLQAEGRVIGSIALHWPRDLACVEQVRNRHLWLLAETVERVQKDI”, the protein production entry is “failed”. For “DTMCLAIPGQVIEIREENGLKMGTVDISGALTKACLEYVPEIAIGQYTIVHAGFALKIIDEKEAAESLKLWDELIKSG”, the protein production result is “not failed”. Regarding “DYSQKLQNLISEQLVGCGFNEILNNSLTAASYYEGSETYKNENLVYLMNPLSNDLNVMRQTLLFGGLESIQHNANRKNADLKFFEFGNCYFYNAEKKNPEKVLAAYAEEYHLGLWVTGKRVSNSWAHPDENSSVYELKAYVLNIFTRLGLNFGNVVFGNLTNDIYSTAISVHTRGGKLLATFGIISKKIQKAFDIDNEVYYAEINWKELM”, the protein production result was “not failed”. Turning to “EAGTGRPVLILHGGGGPATVAPLAGHLARTAHTLVPTHPGWNGTPRPDRFAGVDDIALAYLRHLQDRGLRDVLVVGSSLGGWIGAELAARDDLGIITGLVLIDAVGIQVDGEPVRDFFALDARGVAEYSYHDPDRFYVDPADIPAGQLAARQANMATMRALAGDPYMHDPTLRGRLARVPVPTLVLWGESDRIVTPAYGRAYTDAFPDARFEVIPKAGHLPQLEQPEATFAAIDAYLAR”, the protein production result is listed as “failed”. On to “EARGFTAEDFALSHPGGALGRKLLLRVNDIMHTGDEIPHVGLQATLRDALLEITRKNLGMTAICDDDMNIIGIFTDGDLRRVFDTGVDMRDASIADVMTRGGIRIRPGTLAVDALNLMQSRHITCVLVADGDHLLGVVHMHDLLRA”, for which the protein production result is “not failed”.
